Laboratory results reported in PMC8406272.

What was measured:
[1] = biological target: T1, Lsr2 (Streptomyces venezuelae ATCC 10712) (UniProt F2R951); test: EMSA; details: 10 mM Tris pH 7.8, 5 mM MgCl2, 60 mM KCl, 10% glycerol; Lsr2 (EMSA, AFM): room temperature 10 min then ice 30 min; CmlR: 30 C 30 min
T1 sequence: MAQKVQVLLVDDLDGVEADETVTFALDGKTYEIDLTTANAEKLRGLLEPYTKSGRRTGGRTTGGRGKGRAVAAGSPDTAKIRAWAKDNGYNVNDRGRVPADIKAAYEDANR

[2] = biological target: T2, CmlR (Streptomyces venezuelae ATCC 10712) (UniProt F2RB72); test: EMSA; details: 10 mM Tris pH 7.8, 5 mM MgCl2, 60 mM KCl, 10% glycerol; Lsr2 (EMSA, AFM): room temperature 10 min then ice 30 min; CmlR: 30 C 30 min
T2 sequence: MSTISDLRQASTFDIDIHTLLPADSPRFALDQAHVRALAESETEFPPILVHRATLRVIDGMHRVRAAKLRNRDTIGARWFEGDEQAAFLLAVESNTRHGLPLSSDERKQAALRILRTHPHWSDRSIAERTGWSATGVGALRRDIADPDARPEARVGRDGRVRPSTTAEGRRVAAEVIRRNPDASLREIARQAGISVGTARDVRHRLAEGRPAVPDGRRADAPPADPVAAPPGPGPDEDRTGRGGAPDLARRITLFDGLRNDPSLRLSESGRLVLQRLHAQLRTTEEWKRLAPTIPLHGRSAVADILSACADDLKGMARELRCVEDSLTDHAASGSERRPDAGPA

Sequence	binding [1]	binding [2]
GGATTTTCCTGAACGCCGGAGTCGGGTGACCGATAACCGGACACTTTCCGGATTTCGTGTCCGGATTGAGCCCGGTTATACGTCGAATGCCTCAAGT (double strand) [sven0904-0905 probe]	binds	–
GGTGGATTCCGTAGTCATGGCGCGGACCTTACAGCGATGATCCACGATCATCCGACCGGCTTGTCTATTTTCAGCCAGTCCGACTCGCACCCGGCTCGAACGAAGCCGTGGCCCGAGCGTCACGGAAAGCGTGACACATGTCAGCGCGGCGCCTTTTTCCCTGTTCCGCCGCAATTCCCCGGCACATGATTACGGCCGGAAGCGAAACACATCACCAGGACGTTGTTTCTCGAATTCTCG (double strand) [sven5133 promoter probe]	–	no binding
GGCCCACCCCTTCCTTCACTTCCCTTTGCGGGCTCTTCCCTTTGCGGGCTCGGCCCTTCCCGGGTCCGGCGTCTCGAAGTCTGTGGATATCGGTCGCGGGCCGCAAGGGTGTGCAGATCACCACCCCGTGCAACTGAAGGAACCGGACAGTTGAACAGGGCGGTGAACCGCGCGGACTGAACGACCTTGCGTGGGCCGGGGGCGTATGACATAAAAATCCAGGCGTCGGCCCGGAGCACGACTCGGCCGGCGACGCGATCTGTTCTGTCT (double strand) [sven0924-0925 promoter probe]	–	binds
GGAGACGTTCAGGATCGCGGAACTCTGCTCAGTGGATTTCCGCAGCAGTTTGACCGCTTCCCGGCAGCAGTTCAGCACGGCGAAGAAATTGATGTCGAATATCTTCCGGGAAACCTCGTCCGGGGTCGTCATGAAATGGTTCATCGACGA (double strand) [sven0926 probe]	binds	–
